Test results from patent US20040005554A1 (APPLIED RESEARCH SYSTEMS ARS HOLDING N V, published 2004).

Biological target: the molecule itself
Assay: SDS-PAGE (silver stain) and anti-FLAG western blot of immunoaffinity-purified protein, with and without reduction

B1: FLAG-BRP fusion protein (N-terminal FLAG tag on predicted mature human BRP, secreted through the mouse preprotrypsin signal) (other)
chain: DYKDDDDKASSGNLRTFVGCAVREFTFLAKKPGCRGLRITTDACWGRCETWEKPILEPPYIEAHHRVCTYNETKQVTVKLPNCAPGVDPFYTYPVAIRCDCGACSTATTECETI
notes: The BRP part comes from BRP-NTAP (BRP without the secretory signal peptide); also called FLAG-BRP in pCEP4
binding result: binds
